{"source": "patent US20160333063", "target": "endogenous tau of wild-type mouse primary cortical neurons, P10637", "sequence (P10637 other isoform, or with tags, fused parts or gaps)": "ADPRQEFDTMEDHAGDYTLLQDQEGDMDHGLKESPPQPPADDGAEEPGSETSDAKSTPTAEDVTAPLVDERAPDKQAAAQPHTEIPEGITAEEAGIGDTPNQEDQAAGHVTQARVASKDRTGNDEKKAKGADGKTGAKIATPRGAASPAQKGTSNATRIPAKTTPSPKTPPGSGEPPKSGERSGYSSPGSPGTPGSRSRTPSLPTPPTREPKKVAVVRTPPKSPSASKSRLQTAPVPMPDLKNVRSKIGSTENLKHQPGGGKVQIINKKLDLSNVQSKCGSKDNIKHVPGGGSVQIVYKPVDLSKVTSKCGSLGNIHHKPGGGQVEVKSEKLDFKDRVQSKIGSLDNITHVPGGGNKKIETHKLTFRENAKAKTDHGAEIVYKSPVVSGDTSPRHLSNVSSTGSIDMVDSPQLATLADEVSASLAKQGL", "data": [{"protein": "caspase 3 (activated, cleaved caspase 3) of mouse primary cortical neurons (protein) SGIYLDSSYKMDYPEMGICIIINNKNFHKSTGMSSRSGTDVDAANLRETFMGLKYQVRNKNDLTREDILELMDSVSKEDHSKRSSFVCVILSHGDEGVIYGTNGPVELKKLTSFFRGDYCRSLTGKPKLFIIQACRGTELDCGIETDSGTDEEMACQKIPVEADFLYAYSTAPGYYSWRNSKDGSWFIQSLCSMLKLYAHKLEFMHILTRVNRKVATEFESFSLDSTFHAKKQIPCIVSMLTKELYFYH", "values": [{"measurement": "tau cleaved at Asp421 (TauC3 western blot, TauC3 to total tau)", "value": "did result in increased cleavage of tau as measured by TauC3 western blot"}]}]}
